Read-outs that look alike come from different tables or passages of the source.
Assays:
[1] = biological target: T1, M.EcoRI DNA methyltransferase (UniProt P00472)
T1 sequence: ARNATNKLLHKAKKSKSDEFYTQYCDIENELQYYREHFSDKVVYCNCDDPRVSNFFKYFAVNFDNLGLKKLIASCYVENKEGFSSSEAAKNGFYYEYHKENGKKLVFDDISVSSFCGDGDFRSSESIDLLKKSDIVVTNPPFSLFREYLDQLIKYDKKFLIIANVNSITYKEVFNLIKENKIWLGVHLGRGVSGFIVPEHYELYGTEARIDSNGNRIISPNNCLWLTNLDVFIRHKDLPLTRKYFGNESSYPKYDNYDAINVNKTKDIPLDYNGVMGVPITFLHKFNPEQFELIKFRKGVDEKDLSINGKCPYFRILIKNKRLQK

[2] = biological target: T2, M.BamHI DNA methyltransferase (UniProt P23941)
T2 sequence: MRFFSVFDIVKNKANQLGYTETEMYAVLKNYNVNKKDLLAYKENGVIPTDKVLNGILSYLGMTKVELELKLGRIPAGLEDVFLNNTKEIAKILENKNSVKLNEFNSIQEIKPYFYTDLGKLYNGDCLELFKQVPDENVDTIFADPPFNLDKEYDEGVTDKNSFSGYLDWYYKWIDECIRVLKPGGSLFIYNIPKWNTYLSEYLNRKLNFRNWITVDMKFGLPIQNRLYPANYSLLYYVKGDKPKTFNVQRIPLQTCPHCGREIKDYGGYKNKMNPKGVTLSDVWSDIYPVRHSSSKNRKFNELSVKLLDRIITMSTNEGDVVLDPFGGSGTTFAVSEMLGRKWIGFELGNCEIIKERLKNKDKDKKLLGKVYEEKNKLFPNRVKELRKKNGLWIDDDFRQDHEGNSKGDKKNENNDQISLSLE

[3] = test system: M.CviRI DNA methyltransferase
[4] = biological target: M.HaeIII DNA methyltransferase (UniProt P20589); settings: background 615
[5] = 3H-methyl-SAM, 23 C, 5 mM EDTA, no MTase 574

## pBluescript SK+ polylinker 191 bp amplicon
[1]; [5]
  activity: 85000 cpm
[2]; [5]
  activity: 69700 cpm

## GGTGGGAGAAGAAGATAAAAAGTAACATCTTTCTGCCTTCCAGATGATTCGAAGAATTTCTCCATCCAAGTGCGGCAGGTGGAGGATTGCCCTGTGGACATCTACTACTTGATGGACCTGTCTTACTCCATGCCGGATGATCTGTGGAGCATCCAGAACCTGGGTACCAAGCTGGCCACCCAGATGCGAAAGCTCACCAGTAACCTGCGGATTGGCTTCGGGGCATTTGTGGACAAGCCTGTGTCACCATACATGTATATCTCCCCACCAGAGGCCCTCGAAAACCCCTGCTATGAGTAAGTCCCTCCTCCAGACGCCAGGACAGCATCCTTTGCCCAGGAAGGTCCAAGTCCTGGTTCCTA (double strand) [GPIIIa Yuka/a 362 bp amplicon]
[3]; background 472
  activity: 506 cpm

## pUC19
[4]
  activity: 26200 cpm
[3]; background 615
  activity: 118000 cpm

## pBluescript 191 bp amplicon predigested with BamHI
[1]; background 661
  activity: 32800 cpm
[2]; site cleaved, background 661
  activity: 999 cpm

## GGTGGGAGAAGAAGATAAAAAGTAACATCTTTCTGCCTTCCAGATGATTCGAAGAATTTCTCCATCCAAGTGCGGCAGGTGGAGGATTGCCCTGTGGACATCTACTACTTGATGGACCTGTCTTACTCCATGCCGGATGATCTGTGGAGCATCCAGAACCTGGGTACCAAGCTGGCCACCCAGATGCGAAAGCTCACCAGTAACCTGCGGATTGGCTTCGGGGCATTTGTGGACAAGCCTGTGTCACCATACATGTATATCTCCCCACCAGAGGCCCTCGAAAACCCCTGCTATGAGTAAGTCCCTCCTCCAGACGCCAGGACAGCATCCTTTGCCCAGGAAGGTCCAAGTCCTGGTTCCTA (double strand) [GPIIIa Yukb/b 362 bp amplicon]
[3]; 3H-methyl-SAM, 23 C, 5 mM EDTA, background 501
  activity: 12200 cpm

## pBluescript 191 bp amplicon predigested with EcoRI
[1]; site cleaved, background 750
  activity: 770 cpm
[2]; background 750, nearby frayed EcoRI end interferes
  activity: 1310 cpm
